Measured values from US7235627B2 (Novo Nordisk A/S, priority 1996, dated 2007).

Tests used:
[1] = biological target: T1, cloned human GLP-1 receptor (Homo sapiens, UniProt P43220); test: biochemical
[2] = biological target: T1, cloned human GLP-1 receptor; test: cell-based or functional assay

T1 sequence (P43220 24-463): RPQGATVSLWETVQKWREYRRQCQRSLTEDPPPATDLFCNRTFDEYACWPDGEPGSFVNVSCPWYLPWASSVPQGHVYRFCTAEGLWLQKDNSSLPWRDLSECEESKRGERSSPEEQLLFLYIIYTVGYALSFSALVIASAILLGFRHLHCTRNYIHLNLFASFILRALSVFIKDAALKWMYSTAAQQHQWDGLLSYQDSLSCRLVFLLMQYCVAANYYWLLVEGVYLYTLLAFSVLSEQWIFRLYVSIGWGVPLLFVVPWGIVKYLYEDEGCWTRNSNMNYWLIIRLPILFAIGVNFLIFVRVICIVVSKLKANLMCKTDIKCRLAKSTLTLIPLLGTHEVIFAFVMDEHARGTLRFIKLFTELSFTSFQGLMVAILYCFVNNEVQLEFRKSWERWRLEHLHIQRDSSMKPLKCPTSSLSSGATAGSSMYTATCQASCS

| Compound | EC50 [1] | EC50, pM (stimulation of cAMP formation) [2] |
| --- | --- | --- |
| CC[C@H](C)[C@H](NC(=O)[C@H](Cc1ccccc1)NC(=O)[C@H](CCC(=O)O)NC(=O)[C@H](CCCNC(=N)N)NC(=O)[C@H](C)NC(=O)[C@H](C)NC(=O)[C@H](CCC(N)=O)NC(=O)CNC(=O)[C@H](CCC(=O)O)NC(=O)[C@H](CC(C)C)NC(=O)[C@H](Cc1ccc(O)cc1)NC(=O)[C@H](CO)NC(=O)[C@H](CO)NC(=O)[C@@H](NC(=O)[C@H](CC(=O)O)NC(=O)[C@H](CO)NC(=O)[C@@H](NC(=O)[C@H](Cc1ccccc1)NC(=O)[C@@H](NC(=O)CNC(=O)[C@H](CCC(=O)O)NC(=O)[C@H](C)NC(=O)[C@@H](N)Cc1c[nH]cn1)[C@@H](C)O)[C@@H](C)O)C(C)C)C(=O)N[C@@H](C)C(=O)N[C@@H](Cc1c[nH]c2ccccc12)C(=O)N[C@@H](CC(C)C)C(=O)N[C@H](C(=O)N[C@@H](CCCNC(=N)N)C(=O)NCC(=O)N[C@@H](CCCNC(=N)N)C(=O)NCC(=O)N[C@@H](CCCCNC(=O)CCCCCCCCCCC(=O)O)C(=O)O)C(C)C [Example 16, Arg^26,34Lys^38(N^ε-(ω-carboxyundecanoyl))-GLP-1(7–38)-OH] | 3.5 pM |  |
| Arg^26,34Lys^36(N^ε-(ω-carboxyheptanoyl))-GLP-1(7-36)-OH (peptide) |  | 8.8 pM |
| Arg^26,34Lys^38(N^ε-(ω-carboxyundecanoyl))-GLP-1(7-38)-OH (peptide) |  | 3.5 pM |
| Arg^34Lys^26(N^ε-(γ-glutamyl(N^α-hexadecanoyl)))-GLP-1(7-37)-OH (peptide) |  | 60 pM |
